Reference: patent publication US20230295332A1 (INTERIUS BIOTHERAPEUTICS, published 2023)

T1: non-human primate CD7 (non-human primate)
T1 chain: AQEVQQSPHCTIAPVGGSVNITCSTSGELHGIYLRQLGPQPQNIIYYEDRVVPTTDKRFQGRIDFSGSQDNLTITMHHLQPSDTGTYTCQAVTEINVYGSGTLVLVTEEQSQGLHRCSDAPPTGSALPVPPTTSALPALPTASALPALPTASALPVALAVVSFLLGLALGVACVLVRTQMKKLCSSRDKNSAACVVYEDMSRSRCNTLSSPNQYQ

T2: human CD7 (human, UniProt P09564 26-240)
T2 sequence: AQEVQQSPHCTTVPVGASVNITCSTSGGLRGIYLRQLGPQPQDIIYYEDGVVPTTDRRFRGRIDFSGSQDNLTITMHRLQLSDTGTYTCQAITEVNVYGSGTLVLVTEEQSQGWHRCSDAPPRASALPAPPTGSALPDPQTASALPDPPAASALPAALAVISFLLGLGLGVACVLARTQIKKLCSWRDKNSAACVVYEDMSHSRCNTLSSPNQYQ


Experiments:
Experiment in all cases: cell-based or functional assay
non-human primate CD8 = non-human primate CD8 (non-human primate)
human CD8 = human CD8 (human, UniProt P01732 22-235; P10966 22-210)
non-human primate CD7 = biological target: T1, non-human primate CD7
human CD7 = biological target: T2, human CD7

Chain of human CD8 (P01732 22-235 Y112C limits assumed, chain 1 of 2): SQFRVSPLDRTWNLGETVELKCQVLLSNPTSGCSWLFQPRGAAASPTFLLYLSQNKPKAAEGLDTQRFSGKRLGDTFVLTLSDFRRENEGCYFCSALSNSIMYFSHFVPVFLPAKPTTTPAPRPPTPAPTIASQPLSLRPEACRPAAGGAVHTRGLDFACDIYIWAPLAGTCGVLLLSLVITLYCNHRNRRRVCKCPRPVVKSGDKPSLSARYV
Chain of human CD8 (P10966 other isoform, or with tags, fused parts or gaps limits assumed, chain 2 of 2): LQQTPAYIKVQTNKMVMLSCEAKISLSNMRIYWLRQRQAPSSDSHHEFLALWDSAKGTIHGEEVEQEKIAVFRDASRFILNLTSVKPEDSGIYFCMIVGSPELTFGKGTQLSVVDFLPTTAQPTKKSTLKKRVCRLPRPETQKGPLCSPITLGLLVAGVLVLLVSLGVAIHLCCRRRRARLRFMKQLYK

| Binder | NHP PBMC Transduction (% positive) (non-human primate CD8) | Human PBMC Transduction (% positive) (human CD8) | NHP PBMC Transduction (% positive) (non-human primate CD7) | Human PBMC Transduction (% positive) (human CD7) |
| --- | --- | --- | --- | --- |
| CD8 Binder (SEQ ID NO. 69) (scFv) scFv: NIVLTQSPASLAVSLGQRATISCRASESVDGFGNSFMNWYQQKPGQSPKLLIYLASNLESGVPARFSGSGSRTDFTLTIDPVEADDAATYYCQQNNEDPYTFGGGTKLEIKRGGGGSGGGGSGGGGSGGGGSEVQLQQSGPELVKPGASVKISCKASRYTFTDYNLHWVKLSHEKSLEWIGFIYPYNGGTGYNQKFKNKAKLTVDYSSSTAYMELRSLTSVDAAVYYCARDHRYNEGVSFDYWGQGTTLTVSS | 1.8 % positive | 4.09 % positive |  |  |
| CD7 Binder (SEQ ID NO. 52) (scFv) scFv: QVQLQQPGAELVKPGASVKLSCKASGYPFTSYWIHWVKQRPGRGLEWLGRIDPNSGDTKYNEKFKNKATLTVDKSSTTAYMQLSSLTSEDSAVYYCARSPYYSNDNSMDYWGQGTSVTVSSGGGGSGGGGSGGGGSGGGGSDILLTQSPAILSVSPGERVSFSCRASQSIGTSIHWYQQRTNDSPRLLIKYASESISGIPSRFSGSGSGTDFTLSINSVESEDIADYYCQQSNSWPTTFGGGTKLEIKR |  |  | 5.64 % positive | 21.6 % positive |
| CD8 binder of SEQ ID NO: 70 (printed in Table 1 as 'CD7 Binder (SEQ ID NO. 70)') (scFv) scFv: EVQLQQSGPELVKPGASVKISCKASRYTFTDYNLHWVKLSHEKSLEWIGFIYPYNGGTGYNQKFKNKAKLTVDYSSSTAYMELRSLTSVDAAVYYCARDHRYNEGVSFDYWGQGTTLTVSSGGGGSGGGGSGGGGSGGGGSNIVLTQSPASLAVSLGQRATISCRASESVDGFGNSFMNWYQQKPGQSPKLLIYLASNLESGVPARFSGSGSRTDFTLTIDPVEADDAATYYCQQNNEDPYTFGGGTKLEIKR | 0.76 % positive | 3.17 % positive |  |  |
| CD7 Binder (SEQ ID NO. 51) (scFv) scFv: DILLTQSPAILSVSPGERVSFSCRASQSIGTSIHWYQQRTNDSPRLLIKYASESISGIPSRFSGSGSGTDFTLSINSVESEDIADYYCQQSNSWPTTFGGGTKLEIKRGGGGSGGGGSGGGGSGGGGSQVQLQQPGAELVKPGASVKLSCKASGYPFTSYWIHWVKQRPGRGLEWLGRIDPNSGDTKYNEKFKNKATLTVDKSSTTAYMQLSSLTSEDSAVYYCARSPYYSNDNSMDYWGQGTSVTVSS |  |  | 2.61 % positive | 19.3 % positive |
